Source: article PMC3060798, “Molecular Determinants of S100B Oligomer Formation” (PLoS ONE, 2011)
“And” between values parts separate entries of the source, which are not always exact repeats. Identical values can stand only once.

T1: p53 target peptide (Met followed by residues 367-388 of p53, Phe 385 changed to Trp) (Phe 385 changed to Trp (stands in the printed letters))
T1 construct: added Met before the p53 residues; p53, C-terminal regulatory domain, residues 367-388 with Phe 385 changed to Trp; the peptide was cleaved off; also called p53 peptide; target peptide from p53; source: E. coli ER2566, purified (DEAE cellulose, chitin column, cleaved off from the intein with 50 mM DTT, G25 gel filtration)
T1 peptide: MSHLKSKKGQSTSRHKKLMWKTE


Assays:
[1] = molecular target: the molecule itself; assay: SEC; hexamer, tetramer and dimer fractions collected after imidazol triggering, reinjected on Superdex 200 and analysed repeatedly during storage for up to 6 months in solution at 4 °C
[2] = molecular target: T1, p53 target peptide (Met followed by …); assay: other fluorescence titration; p53 peptide (0.07-1.3 µM) titrated with S100B dimer, tetramer or hexamer stock; 10 mM BisTris, 5 mM CaCl2, pH 7, 25 °C; Trp emission at 330 nm, excitation 295 nm; 1:1 binding model fitted against total S100B monomer concentration; conditions: both partners purified
[3] = molecular target: the molecule itself; assay: SEC; analytical gel filtration on Superdex 200; step: dimers to tetramer, hexamer and higher oligomers; 20 mg/ml trigger-free S100B dimer with imidazol (20-900 mM, optimum 90 mM), 1 mM EDTA, 1 mM DTT, 0.25 M NaCl, pH 7.0, lyophilized, dissolved, incubated 24 h at 4 °C
[4] = molecular target: the molecule itself; assay: dynamic light scattering; ZetaSizer Nano-S; fractions collected directly from the Superdex200 column in 25 mM sodium carbonate with 25 mM HCl, pH 7.3

Row | stoichiometry N [2] | Binder | stoichiometry N [1] | stoichiometry N [3] | stoichiometry N [4]
1 | 2 peptides per dimer | S100B dimer (highly pure, trigger-free) (natural protein, rat, UniProt P04631 1-92, looked up, S100B, rat; plasmid with the rat S100B gene (gift from D. Weber); monomer 10.7 kDa, dimer 21.5 kDa as printed; Homodimer; No tag is mentioned; In rows of m1 with m1 the step meant (monomers to dimer, or dimers to tetramer and higher) is told in the assay's format; also called trigger-free S100B; trigger-free S100B dimer) MSELEKAMVALIDVFHQYSGREGDKHKLKKSELKELINNELSHFLEEIKEQEVVDKVMETLDEDGDGECDFQEFMAFVSMVTTACHEFFEHE | 2 | 4 and 6 | 
2 | 4 peptides per tetramer | S100B tetramer (natural protein, rat, UniProt P04631 1-92, looked up, S100B, rat; same chain as m1, isolated as tetramer (43.0 kDa expected); Same polypeptide as m1 in another oligomeric state; free of imidazol after gel filtration; also called tetramer fraction; source: E. coli BL21 De3 PLysS star; trigger-free dimer triggered with 90 mM imidazol, tetramer fraction collected from Superdex 200 gel filtration) MSELEKAMVALIDVFHQYSGREGDKHKLKKSELKELINNELSHFLEEIKEQEVVDKVMETLDEDGDGECDFQEFMAFVSMVTTACHEFFEHE |  |  | 4
3 | 6 peptides per hexamer | S100B hexamer (natural protein, rat, UniProt P04631 1-92, looked up, S100B, rat; same chain as m1, isolated as hexamer (64.5 kDa expected); Same polypeptide as m1 in another oligomeric state; free of imidazol after gel filtration; also called hexamer fraction; source: E. coli BL21 De3 PLysS star; trigger-free dimer triggered with 90 mM imidazol, hexamer fraction collected from Superdex 200 gel filtration) MSELEKAMVALIDVFHQYSGREGDKHKLKKSELKELINNELSHFLEEIKEQEVVDKVMETLDEDGDGECDFQEFMAFVSMVTTACHEFFEHE |  |  | 6
